Data published in patent EP4806914A1.

B1: second anti-AAV-scFv [2] (scFv)
scFv: QSLEESGGDLVKPGASLTLTCTASGFSFSSNYWMFWVRQAPGKGLEWIAHIYGGSSGSTYYASWAKGRFTISKTSSTTVTLQMTSLTAADTATYFCATVDNGYSDLKLWGPGTLVTVTSGGGGSGGGGSGGGGSELVLTQTADSVEAGVGGTVTIKCQASQSIRNWLSWYQQKPGQPPKLLISRASTLASGVPSRFSGSGSGTEFTLTISDLECDDGATYYCQSSFYADSGEPAFGGGTEVDIKRSAAAGGGSEQKLISEEDLGGGSHHHHHH
B2: fourth anti-AAV-scFv [4] (scFv)
scFv: QSLEESGGDLVKPGASLTLTCTASGFSFSSSAYMCWVRQAPGKGLEWIGCMHTISSVDTYYASWAKGRFAISKASSTTVTLQMTSLTAADTATYFCARDDRNGYGYPYSFDIWGPGTLVTVTSGGGGSGGGGSGGGGSELDLTQTAASVEAAVGGTITIKCQASQTISSYLAWYQQKPGQPPKLLIYRASTLASGVSSRFKGSGSGTEYTLTISDLECADAATYYCLTYYGNSHNFGGGTEVVIKGSAAAGGGSEQKLISEEDLGGGSHHHHHH
B3: third anti-AAV-scFv [3] (scFv)
scFv: QSVEESGGDLVKPGASLTLTCTASGIDFSSGYDMCWVRQAPGKGLEWIGCIYTGGDSAWYASWAKGRFTISKTSSTTVTLQMTSLTGADTATYFCANDLDSGTVSIWGPGTLVTVTSGGGGSGGGGSGGGGSELVLTQTAASVSEPVGGTVTIKCQASQSISSWLSWYQQKPGQPPKLLIYQASKLASGVPSRFKGSGSGTQFTLTISDVVCDDAATYYCAGWTSSTTDGTAFGGGTEVVITGSAAAGGGSEQKLISEEDLGGGSHHHHHH
B4: first anti-AAV-scFv [1] (scFv)
scFv: QSLEESGGGLVKPGASLTLTCTASGFSFSSYGISWFRQAPGKGLEWIGTIYGGSSGSTYYASWAKGRFTISKTSSTTMTLQMASLTAADTATYFCARDRVGGNGYADLWGPGTLVTVTSGGGGSGGGGSGGGGSELVMTQTAASVEAAVGGTVTIKCQASQSISSYLAWYQQKPGQRPKLLIYRASTLASGVSSRFKGSGSGTEYTLTISDLECDDAATYYCQSHYDIRNYGVAFGGGTEVDIKRSAAAGGGSEQKLISEEDLGGGSHHHHHH

Experiments:
[1] = target: AAV9 full capsid (adeno-associated virus serotype 9 (AAV9)); test: ELISA, 0.1 ug AAV9 coated on Maxisorp plate, scFv detected with HRP-labeled anti-His-Tag antibody, A450-A650; reference: AAV9 empty capsid sample
[2] = target: AAV9 empty capsid (adeno-associated virus serotype 9 (AAV9)); test: ELISA, 0.1 ug AAV9 coated on Maxisorp plate, scFv detected with HRP-labeled anti-His-Tag antibody, A450-A650; reference: blank (BSA)

| Binder | IF/IE (ratio of ELISA absorbance for the full capsid sample to that for the empty capsid sample) [1] | IE/IB (ratio of ELISA absorbance for the empty capsid sample to that for the blank (BSA)) [2] |
| --- | --- | --- |
| B1 | 8.23 |  |
| B2 | 7.17 | 3.09 |
| B3 | 6.11 | 2.22 |
| B4 | 6.54 | 1.5 |
